Assay results published in the DeepSol protein solubility set.

assay: soluble on expression in E. coli; label from the status in PepcDB or PDB records

Sequence | soluble on expression in E. coli
MNTPAQRHFTLEPANAERLADLSGCFNEHLRQIELRLGVEIANRGHTFHITGPEPAVTSTETLLRALYAEATGTTFNNHTIQLRLSEAHMAQIVEQTDTPQDIGIRVKRGTVRGHGANQTKYLHKIATHDINFGIGPAGTGKTFLAVASAVEALNESRVQRLILVRPAVEAGEKLGFLPGDLNQKIDPYLRPLYDALYEMLGVEKVLKLLEKNIIEIAPLAYMRGRTLNNAFVILDEAQNTTIEQMKMFLTRLGFGSTAVVTGDLTQIDIPKHLKSGLDDAIEVLHDIEGISFTFFKSHDVVRHPLVARIVSAYDKHNTHPSTTKPA | not soluble
MERIIQQTDYDALSCKLAAISVGYLPSSGLQRLSVDLSKKYTEWHRSYLITLKKFSRRAFGKVDKAMRSSFPVMNYGTYLRTVGIDAAILEFLVANEKVQVVNLGCGSDLRMLPLLQMFPHLAYVDIDYNESVELKNSILRESEILRISLGLSKEDTAKSPFLIDQGRYKLAACDLNDITETTRLLDVCTKREIPTIVISECLLCYMHNNESQLLINTIMSKFSHGLWISYDPIGGSQPNDRFGAIMQSNLKESRNLEMPTLMTYNSKEKYASRWSAAPNVIVNDMWEIFNAQIPESERKRLRSLQFLDELEELKVMQTHYILMKAQWHHHHHH | soluble
MDFKYDVIVIGAGHAGCEAAAAAANLGSKTCLITMDMNKIGQMSCNPAVGGIAKGQIVREIDALGGQMGLVTDETAIQFRILNRSKGPAMWSPRAQCDRAKFIWSWREKLENTPNLHIWQDTVCELLVENGEVVGLVTLWGVTFKAKCIVLTAGTFLNGLMHVGRHQLPGGRMAEPASYQLTESIARHGIAYGRMKTGTPVRIDARSIHFDLMDTQDGECDFHKFSFMNTSTRHLKQLQCWTCYTNEEVHRILREGLPDSPLFNGQIQSIGPRYCPSIETKIVTFPDKEQHQLFLEPEGETTQELYLNGFSSSLPMDIQIAALKKVPAFKDIVIYRPGYAIEYDYFDPTQLKHSLESKIIKNLFFAGQVNGTTGYEEAGGQGLIAGINAHINCHGGEAFTLARDEAYIGVLIDDLVTKGVDEPYRMFTSRAEYRILLRMDDADMRLTERAYHLGLAREDRYQLMKTKKEALEQIVNFAKNYSMKPALINDALEKLGTTPLRQGCKLIEILNRPQITIENIAEHVPAFQRELEKATAADSDRKEEILEAAEILIKYQGYIDRERMIAEKLARLESIKIKGKFDYASIQSLSTEARQKLVKIDPETIAQASRIPGVSPSDINVLLVLSGR | not soluble
MRSQSTHSQSMRSDIYLLLATLLRDVPSAELCAFLAELDFEANGTEMAKAWQAMSAAAQNAQADSLADEYQELFIGIGRGEVVPFASWHLTGSLMEKPLADIRDDLSRLGLERDEQVREPEDHISALCETMAYLCEESGDENAAEETQQAFFNRHIAPWFGKLVSQIRQAPHAQFYLAVAQLLDAFLSLEQVAMTQAPSSRKNRYRIEVKNLTDKAEQ | not soluble
IHTSPYSKDAPLVASLSVNQKITGRNSEKDVRHIEIDLGDSGLRYQPGDALGVWYQNDPALVKELVELLWLKGDEPVTVEGKTLPLNEALQWHFELTVNTANIVENYATLTRSETLLPLVGDKAKLQHYAATTPIVDMVRFSPAQLDAEALINLLRPLTPRLYSIASSQAEVENEVHVTVGVVRYDVEGRARAGGASSFLADRVEEEGEVRVFIEHNDNFRLPANPETPVIMIGPGTGIAPFRAFMQQRAADEAPGKNWLFFGNPHFTEDFLYQVEWQRYVKEGVLTRIDLAWSRDQKEKVYVQDKLREQGAELWRWINDGAHIYVCGDANRMAKDVEQALLEVIAEFGGMDTEAADEFLSELRVERRYQRDVY | soluble
MVGYSSKLIFVSMITRHGDRAPFANIENANYSWGTELSELTPIGMNQEYNLGLQLRKRYIDKFGLLPEHYVDQSIYVLSSHTNRTVVSAQSLLMGLYPAGTGPLIGDGDPAIKDRFQPIPIMTLSADSRLIQFPYEQYLAVLKKYVYNSPEWQNKTKEAAPNFAKWQQILGNRISGLNDVITVGDVLIVAQAHGKPLPKGLSQEDADQIIALTDWGLAQQFKSQKVSYIMGGKLTNRMIEDLNNAVNGKSKYKMTYYSGHALTLLEVMGTLGVPLDTAPGYASNLEMELYKDGDIYTVKLRYNGKYVKLPIMDKNNSCSLDALNKYMQSINEKFQKHHHHHH | soluble
MVRKALWKECLRIGGKVPLLNGEKLREIFRSGRGTGRFAKALGIEYGVDTSFNMLKVAKERGIKVALAKGENLPFKSETFDSVFLVVTICFVENPKQVLKEAHRVLKRDGKLYLGLILKESKWAKFYEEKAKNGHPFYKHARFYSFFELKEMVKDIFSFEEMKSTLLEEPQDSEPVKNKEIKPGFYENSGFTCIRLSKKLLEHHHHHH | not soluble
MAHHHHHHMKGVKFRDNFVKLKEEGPRNATTTNFYGSYFLSENEHLFDINEFEKNLEMKMHKNEENLLILEVKNLNVSIANALRRIMLAEVPTIAIEKVNIFQNTGIIADEILCHRLGLIPFKFDADLINFKEEYEKYNHLNCFCFKLHVKFTKKAGSSETCQSIYSRDLKWCPINEHQKARFQKNPPRVVDDNILITKLSNGQEIELICFLEKGIGKTHAKWSPVCTAVYKMYPAFSFNTCEKFTQEEKKDLVNICPKNVFDVEDSDTLVAKNPLNCSSCRVCIEKYPKKISFEKVKNHFIFTIESTGCFSSADIFRKALLILKDKVVSVKEVLEDQTKA | not soluble
MGSDKIHHHHHHKQLVHEGYRVTGCKRSAEELSALTEVGIEAYPLQLGSEAPSAPDAQALSGLFQTDYLVVNIPPRLKRGNAAYLEELQQLIALTQGWQYQQIVFISTTGVYPAKDKVMTEADALAESSDSQVLLDAEALFQVLPHACIVRFAGLVGPKRHPGRFLAGKTDVSGANVAVNLVHLSDCVSAVSRILAATGSGLSVAPIYNLCAPTHPTKAEFYQAAAESLGLVAPEFNQQSMPSKVIQGDAIVTDLGFRYQYASPQDMLAAC | not soluble
MSLSSKKLGVILYGPPASGKDTVAQALSELDARYGQFARLKVGSGRTTRYRMGTAEQLHDLEAAGAAIYTNSRYGNTYVIDRPGMDSAFEAGVPVVHLGQIDGIRALVDGYTADWAVVLLWCSQEVTAQRSAGRGDSDTTARLAAWQATREDLDAHPDMRWDLTVDTEATAAEESARLIDQLLHARAGVTEGHHHHHH | soluble
AIATLEKKEYGAPGFWPGSMIGRVHAFETPAPLTRAQLDRLRDEFFETRTEGHLEIWTAIRAASHAQEAGDDELAYAIITAVGILPAEVGPAGEGLGERIPFAEQPLDRLLGMICGCCFPAFTRYRTLERVYDQRGFLYETPKECIATPSNVLPDESTEASAR | soluble
MSSTAAKKDVKSSAVPVTAVVEKKEFEEEEFEEFPVQEWAERAEGEEDDVNVWEDNWDDETHESEFSKQLKEELRKSGHQVA | not soluble
MAHHHHHHMATSLSDVNHIILVLSGKGGVGKSTVACQLALALANVHGKKVGLLDVDICGPSVPTICGVTGKDVYRGDAGWEPVSLFHEQHEADTAASATGNVKIMSIAFLLPSENDAVVWRGPKKDAMIRQFVTDVHWGALDYLIIDTPPGTSDEHLTLCEVLKPFNTAGAVIVTTPQDVATDDVKKELSLCHKLELRCLGVVENMSGFVCPHCAHCTDIFSKGGGKKLAEMYEVEFLGAIPIDPTLSLAEDKGQCFVTTATDANSPTVRKTVAAVTGVIDAILKQVEKSAQLQQRH | soluble
MAKNTSCGVQLRIRGKVQGVGFRPFVWQLAQQLNLHGDVCNDGDGVEVRLREDPEVFLVQLYQHCPPLARIDSVEREPFIWSQLPTEFTIR | soluble
MSNSDDEIQEIEAKRQKMSQEDSEVEIEILDEPEQGKLKNSSMSDEQKLHEFAIITATDEAFAQSILQDVDWDLKKALDVFYGSEAFAEARSAAVMGASSSMASSGAAVMTAEDLKGFEVSVMSWNIDGLDGRSLLTRMKAVAHIVKNVNPDILFLQEVVDRDLAPIDKLQSLYKIYYSNKGCQYYTAILVSKMFDVEKHDVIHFQNSGMYRTLQILEGSIGGLKVFLLNTHLESTREHRPQRCAQFGFCMDKVREIIAQNPGALVFFGGDLNLRDEEVSRVPDGVKDAWEAAGSDNKTKFTWDTFKNDNKQGFHGAKMRFDRLYWSGPLDKVKFTLEGRQRIRSCLCFPSDHWAINATFFA | not soluble
